Assays:
AdpA_1075 [1] = target: T1, AdpA_1075 (Actinosynnema pretiosum subsp. …, UniProt A0A290Z1C2 1-322); assay: EMSA; shifted with 1000 nM protein; excess unlabeled specific DNA competes; Beyotime Chemiluminescent EMSA Kit (buffer, salt and pH not stated); 20 ng biotin-labeled probe, 10 min at room temperature, 5% polyacrylamide gel; conditions: protein: recombinant; tags: His6 (pET-28a NdeI/HindIII; the reverse primer keeps the stop codon, so N-terminal tag; named AdpA_1075-His6 in the text); chain copies: 2; label: 5' biotin on strand 1; blunt
T1 sequence: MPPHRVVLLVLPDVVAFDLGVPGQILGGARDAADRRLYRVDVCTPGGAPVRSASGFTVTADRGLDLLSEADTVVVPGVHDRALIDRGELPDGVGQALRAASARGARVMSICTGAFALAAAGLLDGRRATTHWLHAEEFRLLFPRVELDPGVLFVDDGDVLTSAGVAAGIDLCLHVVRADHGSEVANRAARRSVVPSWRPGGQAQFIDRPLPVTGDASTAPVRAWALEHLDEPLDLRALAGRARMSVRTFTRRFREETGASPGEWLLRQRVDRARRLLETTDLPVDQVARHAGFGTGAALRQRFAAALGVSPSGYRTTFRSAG

AdpA_1075 [2] = target: T1, AdpA_1075; assay: EMSA; protein concentration-dependent shift; excess unlabeled specific DNA competes; Beyotime Chemiluminescent EMSA Kit (buffer, salt and pH not stated); 20 ng biotin-labeled probe, 10 min at room temperature, 5% polyacrylamide gel; conditions: protein: recombinant; tags: His6 (pET-28a NdeI/HindIII; the reverse primer keeps the stop codon, so N-terminal tag; named AdpA_1075-His6 in the text); chain copies: 2; label: 5' biotin on strand 1; blunt

B1: Pasm28 (dsDNA)
DNA 1: CGCAGTGGCCCGAACGGGTCCGCAGTGGCCCGAACGGGTCCGCAGTGGCCCGAACGGGTC
DNA 2: GACCCGTTCGGGCCACTGCGGACCCGTTCGGGCCACTGCGGACCCGTTCGGGCCACTGCG
binding result (AdpA_1075 [1]): binds

B2: PssgA (dsDNA)
DNA 1: GTGTTGGCCGGAACCACGGTGTTGGCCGGAACCACGGTGTTGGCCGGAACCACG
DNA 2: CGTGGTTCCGGCCAACACCGTGGTTCCGGCCAACACCGTGGTTCCGGCCAACAC
binding result (AdpA_1075 [2]): binds

— PMC9687425, “Global Regulator AdpA_1075 Regulates Morphological Differentiation and Ansamitocin Production in Actinosynnema pretiosum subsp. auranticum”
